Results reported in article PMC11672978, “Assessing the Impact of the Leader Peptide in Protease Inhibition by the Microviridin Family of RiPPs” (Biomedicines, 2024).

What was measured:
[1] = biological target: Elastase
[2] = biological target: Elastase; remark: listed apart in the source
[3] = biological target: elastase; conditions: mature natural product without leader peptide; read-out: previously reported IC50 for elastase inhibition; cited from earlier work
Excerpt: Although, the IC50 value we measured is certainly an overestimation of the actual IC50 as it is less than half the concentration of the elastase used in the assay.

## MdnA Δ2 (bicyclic microviridin B precursor peptide modified by MdnC only, leader peptide present, N-terminal His-tag)
[1]
  IC50 of inhibition of the hydrolysis of the fluorogenic substrate MeOSuc-AAPV-AMC by elastase (20 nM elastase, 10 nM-10,000 nM MdnA Δ2, 100 mM HEPES pH 8.0, 10% DMSO, room temperature): 840 nM

## MdnA Δ3 (tricyclic, fully modified microviridin B precursor peptide with the leader peptide present, N-terminal His-tag)
[2]
  IC50 of inhibition of the hydrolysis of the fluorogenic substrate MeOSuc-AAPV-AMC by elastase (20 nM elastase, 0.1 nM-100 nM MdnA Δ3, 100 mM HEPES pH 8.0, 10% DMSO, room temperature): 8.3 nM

## microviridin B
[3]
  IC50: 25 nM
